Experimental data as given in article PMC8867921.

Biological target: nucleosome N(13,91) (chicken)
Assay: single-particle FRET

## poly(ADP-ribose) polymerase 1 (from UniProt P09874 1-1014) (enzyme)
  content of PARP1-nucleosome complexes at 50 nM PARP1: 45%
